What all share (test): cell-based or functional assay
The target of experiment [1] is LLMWITQC (SEQ ID NO: 1) presented by HLA-A02 on T2 cells (human).
Experiment [2] concerns the target LAMWITQC (SEQ ID NO: 2) presented by HLA-A02 on T2 cells (human).
Experiment [3] has as its target NY-ESO-1 peptide … (SEQ ID NO: 40) presented by HLA-A02 on T2 cells (human).

Drawing on patent publication US20250302956A1, this text covers average log 2FC in PresentER library coculture screen, CD8-native 1G4-α95: TS cells (log2 fold change) for one substance.

As for native 1G4-α95: TS TCR, the results for the average log 2FC in PresentER library coculture screen, CD8-native 1G4-α95: TS cells (log2 fold change) in experiment [1], in experiment [2] and in experiment [3] were -5, -4 and -6.1, respectively.
